Reference: patent US20230340119A1 (ARBELE, published 2023)
Several values for one entry are separate records, joined by “and”; a condition that tells them apart may be missing. Identical values can stand only once.

B1: h10Ta-wt (bispecific antibody)
light: DIQMTQSPSSLSASVGDRVTITCRASQDIRNYLNWYQQKPGKAPKLLIYYTSRLESGVPSRFSGSGSGTDYTLTISSLQPEDFATYYCQQGNTLPWTFGQGTKVEIKGAPGGGTHTCPPCPAPELLGGPSVFLFPPKPKDTLMISRTPEVTCVVVDVSQEDPEVQFNWYVDGVEVHNAKTKPREEQFNSTYRVVSVLTVLHQDWLNGKEYKCKVSNKGLPSSIEKTISKAKGQPREPQVYTLPPSREEMTKNQVSLSCAVKGFYPSDIAVEWESNGQPENNYKTTPPVLDSDGSFFLVSKLTVDKSRWQQGNVFSCSVMHEALHNHYTQKSLSLSPGK
heavy: EVQLLESGGGLVQPGGSLRLSCAASGFTFSSYAMSWVRQAPGKGLEWVAVIDSNGGSTYYPDTVKDRFTISRDNSKNTLYLQMNSLRAEDTAVYYCSSYTNLGAYWGQGTLVTVSAGGGGSGGGGSGGGGSDIQMTQSPSSLSASVGDRVTITCRASQDISGYLNWLQQKPGKAIKRLIYTTSTLDSGVPSRFSGSGSGTDFTLTISSLQPEDFATYYCLQYASSPFTFGGGTKVEIKPAGGGGGSEVQLVESGGGLVQPGGSLRLSCAASGYSFTGYTMNWVRQAPGKGLEWVALINPYKGVSTYNQKFKDRFTISVDKSKNTAYLQMNSLRAEDTAVYYCARSGYYGDSDWYFDVWGQGTLVTVSSGAPGGGTHTCPPCPAPELLGGPSVFLFPPKPKDTLMISRTPEVTCVVVDVSQEDPEVQFNWYVDGVEVHNAKTKPREEQFNSTYRVVSVLTVLHQDWLNGKEYKCKVSNKGLPSSIEKTISKAKGQPREPQVYTLPPSREEMTKNQVSLWCLVKGFYPSDIAVEWESNGQPENNYKTTPPVLDSDGSFFLYSKLTVDKSRWQQGNVFSCSVMHEALHNHYTQKSLSLSPGK
notes: also called h10Ta with the parental Fv; h10Ta (wt anti-CD3 Fv)
B2: hB2Ta (bispecific antibody)
light: DIQMTQSPSSLSASVGDRVTITCQASQDISNYLNWYQQKPGKAPKLLIYYTSRLESGVPSRFSGSGSGTDYTLTISSLQPEDFATYYCQQGNTLPWTFGQGTKVEIKGAPGGGTHTCPPCPAPELLGGPSVFLFPPKPKDTLMISRTPEVTCVVVDVSQEDPEVQFNWYVDGVEVHNAKTKPREEQFNSTYRVVSVLTVLHQDWLNGKEYKCKVSNKGLPSSIEKTISKAKGQPREPQVYTLPPSREEMTKNQVSLSCAVKGFYPSDIAVEWESNGQPENNYKTTPPVLDSDGSFFLVSKLTVDKSRWQQGNVFSCSVMHEALHNHYTQKSLSLSPGK
heavy: QVQLVQSGAEVKKPGASVKVSCKASGYSFTDYTMNWVRQAPGQGLEWMGVINPNHGISSYAQKFQGRVTMTRDTSTSTVYMELSSLRSEDTAVYYCVRRKISYDYDEGYAMDYWGQGTLVTVSSGGGGSGGGGSGGGGSDIVMTQSPDSLAVSLGERATINCKSSQNLLNSSNQKNYLAWYQQKPGQPPKLLVFFAATRESGVPDRFSGSGSGTDFTLTISSLQAEDVAVYYCQQHYSTPWTFGGGTKLEIKPAGGGGSEVQLVESGGGLVQPGGSLRLSCAASGYSFTGYTMNWVRQAPGKGLEWVALINPYKGVSTYNQKFKDRFTISVDKSKNTAYLQMNSLRAEDTAVYYCARSGYYGDSDWYFDVWGQGTLVTVSSGAPGGGTHTCPPCPAPELLGGPSVFLFPPKPKDTLMISRTPEVTCVVVDVSQEDPEVQFNWYVDGVEVHNAKTKPREEQFNSTYRVVSVLTVLHQDWLNGKEYKCKVSNKGLPSSIEKTISKAKGQPREPQVYTLPPSREEMTKNQVSLWCLVKGFYPSDIAVEWESNGQPENNYKTTPPVLDSDGSFFLYSKLTVDKSRWQQGNVFSCSVMHEALHNHYTQKSLSLSPGK
B3: h10Ta-L4 (bispecific antibody)
light: DIQMTQSPSSLSASVGDRVTITCQASQDISNYLNWYQQKPGKAPKLLIYYTSRLESGVPSRFSGSGSGTDYTLTISSLQPEDFATYYCQQGNTLPWTFGQGTKVEIKGAPGGGTHTCPPCPAPELLGGPSVFLFPPKPKDTLMISRTPEVTCVVVDVSQEDPEVQFNWYVDGVEVHNAKTKPREEQFNSTYRVVSVLTVLHQDWLNGKEYKCKVSNKGLPSSIEKTISKAKGQPREPQVYTLPPSREEMTKNQVSLSCAVKGFYPSDIAVEWESNGQPENNYKTTPPVLDSDGSFFLVSKLTVDKSRWQQGNVFSCSVMHEALHNHYTQKSLSLSPGK
heavy: EVQLLESGGGLVQPGGSLRLSCAASGFTFSSYAMSWVRQAPGKGLEWVAVIDSNGGSTYYPDTVKDRFTISRDNSKNTLYLQMNSLRAEDTAVYYCSSYTNLGAYWGQGTLVTVSAGGGGSGGGGSGGGGSDIQMTQSPSSLSASVGDRVTITCRASQDISGYLNWLQQKPGKAIKRLIYTTSTLDSGVPSRFSGSGSGTDFTLTISSLQPEDFATYYCLQYASSPFTFGGGTKVEIKPAGGGGGSEVQLVESGGGLVQPGGSLRLSCAASGYSFTGYTMNWVRQAPGKGLEWVALINPYKGVSTYNQKFKDRFTISVDKSKNTAYLQMNSLRAEDTAVYYCARSGYYGDSDWYFDVWGQGTLVTVSSGAPGGGTHTCPPCPAPELLGGPSVFLFPPKPKDTLMISRTPEVTCVVVDVSQEDPEVQFNWYVDGVEVHNAKTKPREEQFNSTYRVVSVLTVLHQDWLNGKEYKCKVSNKGLPSSIEKTISKAKGQPREPQVYTLPPSREEMTKNQVSLWCLVKGFYPSDIAVEWESNGQPENNYKTTPPVLDSDGSFFLYSKLTVDKSRWQQGNVFSCSVMHEALHNHYTQKSLSLSPGK
notes: also called TriAx-A harboring L4

How the values were obtained:
CD3 on T cells [1] = molecular target: T1, CD3 on T cells (UniProt P07766 23-207); test: cell-based or functional assay
T1 sequence (P07766 23-207): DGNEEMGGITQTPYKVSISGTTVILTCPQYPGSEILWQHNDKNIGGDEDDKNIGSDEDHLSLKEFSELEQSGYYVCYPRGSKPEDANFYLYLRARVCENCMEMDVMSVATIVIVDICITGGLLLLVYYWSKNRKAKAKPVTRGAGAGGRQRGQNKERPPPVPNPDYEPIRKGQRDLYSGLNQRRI

CD3 on T cells [2] = molecular target: T1, CD3 on T cells; test: flow cytofluorimetry on peripheral blood T cells, fit of Median FI against concentration; one of three independent determinations
Procedure: (§1) The antibody binding to peripheral blood T cells was determined for T cell affinity over a range of concentration as shown in FIG. 8A. MFI were plotted and affinity (EC50) was determined using GraphPad PRISM. Three independent affinity determinations and their averages were indicated. […] Both h10Ta antibodies engaged CDH17 (on DLD1) and CD3. The signaling was determined according to manufacturer's protocol, at 24 hours using an antibody concentration range as indicated and Jurkat reporter cells at 100×10³ and DLD1 cells at 30×10³ per microtiter well (96-well plate). Luciferase expression/activity was measured using a multimode plate reader. […] Controls included no antibody or a CD3, CD28, CD2 agonist (Immunocult; StemCell) to induce maximal stimulation.

CD3 on T cells [3] = molecular target: T1, CD3 on T cells; test: flow cytofluorimetry on peripheral blood T cells, EC50 from MFI, average of three determinations; h10Ta-wt, parental Fv Vk CDR1
Procedure: as §1

CD3 on T cells [4] = molecular target: T1, CD3 on T cells; test: cell-based or functional assay; remark: listed apart in the source
[5] = molecular target: T2, Fibroblast activation protein alpha (FAP) on DLD1-FAP cells (UniProt Q12884 1-760, limits assumed); test: cell-based or functional assay
T2 sequence (looked up): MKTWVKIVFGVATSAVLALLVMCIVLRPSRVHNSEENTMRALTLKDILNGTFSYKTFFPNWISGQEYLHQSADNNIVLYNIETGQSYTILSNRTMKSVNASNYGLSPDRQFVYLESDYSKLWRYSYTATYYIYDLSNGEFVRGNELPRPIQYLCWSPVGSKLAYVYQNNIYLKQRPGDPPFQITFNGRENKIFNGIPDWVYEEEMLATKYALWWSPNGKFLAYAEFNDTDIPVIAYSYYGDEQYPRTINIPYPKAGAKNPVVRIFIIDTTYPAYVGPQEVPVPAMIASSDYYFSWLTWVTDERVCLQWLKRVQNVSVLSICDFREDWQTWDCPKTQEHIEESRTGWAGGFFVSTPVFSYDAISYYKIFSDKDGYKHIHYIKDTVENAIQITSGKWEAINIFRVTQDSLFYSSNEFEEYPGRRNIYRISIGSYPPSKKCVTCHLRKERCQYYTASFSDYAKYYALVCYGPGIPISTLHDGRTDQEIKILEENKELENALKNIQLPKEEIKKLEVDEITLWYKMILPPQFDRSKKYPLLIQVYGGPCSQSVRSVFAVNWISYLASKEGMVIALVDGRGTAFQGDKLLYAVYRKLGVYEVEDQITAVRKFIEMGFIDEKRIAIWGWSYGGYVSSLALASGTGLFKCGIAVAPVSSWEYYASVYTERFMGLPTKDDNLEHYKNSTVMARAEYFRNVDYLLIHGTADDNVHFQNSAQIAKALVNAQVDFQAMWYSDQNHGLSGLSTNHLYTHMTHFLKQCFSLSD

CD3 on T cells [6] = molecular target: T1, CD3 on T cells; test: flow cytofluorimetry on peripheral blood T cells
Procedure: as §1

CD3 on T cells [7] = molecular target: T1, CD3 on T cells; test: flow cytofluorimetry on peripheral blood T cells, EC50 from MFI, average of three determinations; h10Ta-L4, modified CDRL1
Procedure: as §1

| Binder | EC50 for AGS killing in the presence of T cells, 24 hours, E:T 4 (CD3 on T cells [1]) | EC50 for killing DLD1 in the presence of T cells, 24 hours, E:T 4 (CD3 on T cells [1]) | Kd (CD3 on T cells [2]) | EC50 (CD3 on T cells [3]) | EC50 (read off the curve), NFAT-luciferase induction in Jurkat reporter cells with DLD1 cells (CD3 on T cells [4]) | EC50 of tumor cell cytotoxicity, DLD1-FAP cells with T cells, 24 hours, E:T 4 [5] | fold decrease in T cell signaling, NFAT luciferase Jurkat reporter cells with DLD1 cells, 24 hours (CD3 on T cells [1]) | fold decrease in T cell affinity relative to the parental Fv (h10Ta-wt) (CD3 on T cells [6]) | EC50 (CD3 on T cells [7]) |
| --- | --- | --- | --- | --- | --- | --- | --- | --- | --- |
| B1 | 0.0014 nM | 0.0005 nM | 50 nM and 54 nM and 75 nM | 60 nM | ~0.4 nM |  |  |  |  |
| B2 |  |  |  |  |  | 0.041 nM |  |  |  |
| B3 | 0.002 nM | 0.0004 nM | 236 nM and 358 nM and 365 nM |  | ~0.8 nM |  | 2 fold | 5 fold | 320 nM |
